Test results reported in patent WO2019173771A1 (dated 2019).

How the values were obtained:
[1] = target: T1, recombinant human CD147-Fc chimeric protein (R&D Systems, cat. no. 927-EMN-050), deglycosylated (human, UniProt P35613-2 25-205, deglycosylated of N- and simple O-linked carbohydrates (Protein Deglycosylation Mix II or Enzymatic Protein Deglycosylation Kit; migrated at 52 and 48 kDa)); experiment: ELISA, deglycosylated CD147-Fc adsorbed at 1 ug/mL
T1 construct: Same bought protein as m6 after enzymatic deglycosylation; also called deglycosylated CD147-Fc fusion protein; deglycosylated CD147 antigen; not shown: Fc part of the bought chimeric protein
T1 sequence (looked up): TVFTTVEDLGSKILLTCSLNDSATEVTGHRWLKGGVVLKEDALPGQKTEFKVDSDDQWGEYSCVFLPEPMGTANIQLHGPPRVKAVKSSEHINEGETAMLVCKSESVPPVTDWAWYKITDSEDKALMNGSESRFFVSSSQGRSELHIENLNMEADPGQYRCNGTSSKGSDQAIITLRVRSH

[2] = target: T2, cynomolgus CD147 on the cynomolgus primary kidney epithelial cell line (cynomolgus monkey); experiment: FACS on the cynomolgus primary kidney epithelial cell line, Alexa Fluor 647 anti-human IgG
T2 construct: whole, on cells; also called cynomolgus monkey CD147

[3] = target: T3, recombinant human CD147-Fc chimeric protein (R&D Systems, cat. no. 927-EMN-050), glycosylated (human, UniProt P35613-2 25-205, glycosylated (as supplied; migrated at about 62 kDa)); experiment: ELISA, CD147-Fc adsorbed at 1 ug/mL
T3 construct: Bought protein; also called glycosylated CD147-Fc fusion protein; glycosylated CD147 antigen; not shown: Fc part of the bought chimeric protein
T3 sequence (looked up): T1 sequence (looked up)

B1: humanized anti-human CD147 hu3A11 antibody (3A11 Lc1 / Hc1) (antibody, V domains shown)
VH: EVQLVESGGGLVQPGGSLRLSCAASGFTFSNYWMDWVRQAPGKGLEWVGEIRLKSYNYATHYAASVKGRFTISRDDSKNSVYLQMNSLKTEDTAVYYCTAAGTDYWGQGTLVTVSS
VL: DIQMTQSPSSLSASVGDRVTITCRASQSVRTDVGWYQQKPGKAPKLLIYYSSNRYTGVPSRFSGSGSGTDFTLTISSLQPEDFATYYCQQDYSSPYTFGQGTKLEIK
notes: also called hu 3A11 Lc1 / Hc1; huHc1 / huLc1
Which results are given for B1?
binding result [1]: binds; Kd [2]: 1.3 nM; binding result [3]: binds
